Reference: patent US20180280520A1 (NAVIGEN, published 2018)
“And” between values parts separate entries of the source, which are not always exact repeats. Identical values can stand only once. Positions of bridges follow the written chain, without caps; N, C: chain ends. Non-standard residues stand in square brackets, D forms with d. Primed or numbered codes have the meaning given here. No end group written: not given here. PEG4′ = not defined here; PEG6′ = not defined here; PEG8′ = not defined here

T1: BPEG2-GKG-RSVB-IZN45 Full Mut (respiratory syncytial virus, RSV-B, N-terminal biotinPEG2; C-terminal amide)
T1 construct: also called IZN45_Mut; mutant target
T1 chain: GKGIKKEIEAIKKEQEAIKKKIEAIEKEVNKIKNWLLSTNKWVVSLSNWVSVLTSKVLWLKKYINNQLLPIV

T2: BPEG2-GKG-RSVB-IZN45 (respiratory syncytial virus, RSV-B, N-terminal biotinPEG2; C-terminal amide)
T2 chain: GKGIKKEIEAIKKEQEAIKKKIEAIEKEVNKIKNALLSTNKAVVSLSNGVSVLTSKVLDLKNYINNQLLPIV

T3: IZN45_WT_Bot (N-terminal biotinPEG2; C-terminal amide)
T3 construct: also called BPEG2-GKG-RSVB-IZN45 wt bot
T3 N-trimer mimic monomer (IZ fused to N45, partial groove mutant): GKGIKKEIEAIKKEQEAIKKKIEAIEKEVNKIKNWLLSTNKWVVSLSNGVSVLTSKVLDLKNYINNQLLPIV


Biological target: T1, BPEG2-GKG-RSVB-IZN45 Full Mut
Assay: phage ELISA

| Binder | binding result |
| --- | --- |
| YDPLVFPSDEFDASISQVNEKINQSLAFIRKSDEL (domain: 35-residue RSV C-peptide T108) [control phage displaying T108] | no binding |

Biological target: T2, BPEG2-GKG-RSVB-IZN45
Assay: SPR, biotinylated L-IZN45 on NeutrAvidin chip

| Binder | Kd |
| --- | --- |
| FDASISQVNEKINQSLAFIRKSDELLHNVNAGKST (also called RSV C-peptide T118) [T118] | ~0.001 µM |

Biological target: T1, BPEG2-GKG-RSVB-IZN45 Full Mut
Assay: SPR

| Binder | binding result |
| --- | --- |
| FDASISQVNEKINQSLAFIRKSDELLHNVNAGKST (also called RSV C-peptide T118) [T118] | no binding |
| YDPLVFPSDEFDASISQVNEKINQSLAFIRKSDEL (domain: 35-residue RSV C-peptide T108; also called RSV C-peptide T108) [T108] | no binding |

What follows are binders tested against RSV F protein (RSV-A) (respiratory syncytial virus, RSV-A, UniProt P03420 26-574) (assay: cell-based or functional assay).

| Binder | IC50, syncytia reduction assay |
| --- | --- |
| KKGRWFELPEPEWWG (not fully specified; all D-amino acids; C-terminal PEG6 joined to the hub) [KKG-RSVP7-G(PEG6)-Tricasso] | 4.8 µM and 4.5 µM |
| [dK]G[dR][dW][dF][dE][dL][dP][dE][dP][dE][dW][dW]G (not fully specified (C-terminus); printed as KG-RSVP7-G(PEG6)-Tricasso) [KG-RSVP7-G(PEG6)-Tricasso] | 18.4 µM |
| Ac-KG[dA][dC][dR][dN][dE][dP][dH][dW][dL][dL][dD][dW][dC][dA][dA]-NH2 (disulfide 4-15 (inferred); not fully specified (residue 1); printed as Ac-K(PEG6)-RSVP20-trimer; also: PEG6 after N-terminal K (side chain or backbone unclear), trimer) [Ac-K(PEG6)-RSVP20-trimer] | 55 µM and 19 µM |
| Ac-KG[dA][dC][dT][dN][dR][dA][dE][dW][dL][dI][dD][dW][dC][dA][dA]-NH2 (disulfide 4-15 (inferred); not fully specified (residue 1); printed as Ac-K(PEG6)-RSVP21-trimer; also: PEG6 after N-terminal K (side chain or backbone unclear), trimer) [Ac-K(PEG6)-RSVP21-trimer] | 65 µM |

The binders below were run against RSV F protein (RSV-A) (respiratory syncytial virus, RSV-A) (UniProt P03420) (assay: cell-based or functional assay).
Chain of RSV F protein (RSV-A) (respiratory syncytial virus, RSV-A) (P03420 26-574): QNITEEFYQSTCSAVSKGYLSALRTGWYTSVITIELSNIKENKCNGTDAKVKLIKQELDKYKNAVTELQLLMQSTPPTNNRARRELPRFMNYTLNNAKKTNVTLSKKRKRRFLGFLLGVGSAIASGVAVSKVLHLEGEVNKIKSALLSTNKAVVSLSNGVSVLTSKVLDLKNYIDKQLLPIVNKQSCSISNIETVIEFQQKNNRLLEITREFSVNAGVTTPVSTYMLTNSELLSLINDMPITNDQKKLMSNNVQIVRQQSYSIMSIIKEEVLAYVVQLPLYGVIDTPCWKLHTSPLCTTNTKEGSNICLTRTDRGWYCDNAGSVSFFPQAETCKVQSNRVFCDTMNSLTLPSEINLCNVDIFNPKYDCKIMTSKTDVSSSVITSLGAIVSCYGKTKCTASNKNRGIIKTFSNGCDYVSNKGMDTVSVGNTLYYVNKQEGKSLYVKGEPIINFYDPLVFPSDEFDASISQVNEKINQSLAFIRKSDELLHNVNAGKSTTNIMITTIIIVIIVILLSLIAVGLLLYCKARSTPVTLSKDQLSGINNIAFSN

| Binder | IC50, syncytia reduction assay | potency | potency, fold decrease compared to RSVP32 |
| --- | --- | --- | --- |
| Ac-[dK][PEG6′][dD][dD]G[dA][dE][dC][dV][dN][dR][dP][dE][dW][dL][dL][dD][dW][dC]G[dT]-NH2 (disulfide 8-19; also: cholesterol conjugate, trimer) [Chol-Ac-K(PEG6)DDG-RSVP31-trimer] | 0.065 µM and 0.054 µM and 0.024 µM | – | – |
| KKGAAAARWFELPEPEWWG (not fully specified; all D-amino acids; C-terminal PEG6 joined to the hub) [KKGAAAA-RSVP7-G(PEG6)-Tricasso] | 13.9 µM and 7.4 µM | – | – |
| Ac-[dS][dM][dC][dV][dN][dR][dP][dE][dW][dL][dL][dD][dW][dC]G[dT]G[dD][dD][PEG6′][dK]-NH2 (disulfide 3-14; also: cholesterol conjugate, trimer) [Chol-Ac-RSVP24-GDD(PEG6)K-trimer] | 0.097 µM | – | – |
| Ac-[dK][PEG6′]G[dA][dC][dR][dN][dE][dP][dH][dW][dL][dL][dD][dW][dC][dA][dA]-NH2 (disulfide 5-16; also: cholesterol (Chol) conjugate, site not given here, trimer) [Chol-Ac-K(PEG6)-RSVP20-trimer] | 7.9 µM | – | – |
| Ac-[dK][PEG4′][dD][dD]GG[dE][dC][dV][dN][dR][dP][dE][dW][dL][dL][dD][dW][dC]G[dT]-NH2 (disulfide 8-19; also: Chol, attachment not given here, trimer, linkage not given here) [Chol-Ac-K(PEG4)DDG-RSVP32-trimer] | 0.028 µM and 0.016 µM and 0.011 µM | – | – |
| Ac-[dK][PEG8′]GG[dE][dC][dV][dN][dR][dP][dE][dW][dL][dL][dD][dW][dC]G[dT]G[dD][dD]-NH2 (disulfide 6-17; also: cholesterol conjugate, trimer) [Chol-Ac-K(PEG8)G-RSVP32-GDD-trimer] | 0.024 µM and 0.008 µM | – | – |
| Ac-[dK][PEG6′][dD][dD]G[dS][dM][dC][dV][dN][dR][dP][dE][dW][dL][dL][dD][dW][dC]G[dT]-NH2 (disulfide 8-19; also: trimer, linkage not given here) [Ac-K(PEG6)DDG-RSVP24-trimer] | 5.5 µM | – | – |
| Ac-[dK]GG[dA][dC][dR][dN][dE][dP][dH][dW][dL][dL][dD][dW][dC][dA][dA]-NH2 (disulfide 5-16; SMILES CC(=O)N[C@H](CCCCN)C(=O)NCC(=O)NCC(=O)N[C@H](C)C(=O)N[C@@H]1CSSC[C@H](C(=O)N[C@H](C)C(=O)N[C@H](C)C(N)=O)NC(=O)[C@@H](Cc2c[nH]c3ccccc23)NC(=O)[C@@H](CC(=O)O)NC(=O)[C@@H](CC(C)C)NC(=O)[C@@H](CC(C)C)NC(=O)[C@@H](Cc2c[nH]c3ccccc23)NC(=O)[C@@H](Cc2c[nH]cn2)NC(=O)[C@H]2CCCN2C(=O)[C@@H](CCC(=O)O)NC(=O)[C@@H](CC(N)=O)NC(=O)[C@@H](CCCNC(=N)N)NC1=O) [Ac-KG-RSVP20] | 673 µM | – | – |
| Ac-[dK][PEG6′][dD][dD]G[dH][dE][dC][dV][dN][dR][dP][dE][dW][dL][dL][dD][dW][dC][dE][dH]-NH2 (disulfide 8-19; also: cholesterol conjugate, trimer) [Chol-Ac-K(PEG6)DDG-RSVP27-trimer] | 0.14 µM and 0.09 µM and 0.088 µM | – | – |
| Ac-[dK][PEG6′][dD][dD]G[dS][dA][dC][dV][dN][dR][dP][dE][dW][dL][dL][dD][dW][dC]G[dT]-NH2 (disulfide 8-19; also: cholesterol conjugate, trimer) [Chol-Ac-K(PEG6)DDG-RSVP29-trimer] | 0.12 µM and 0.1 µM | – | – |
| Ac-[dS][dM][dC][dV][dN][dR][dP][dE][dW][dL][dL][dD][dW][dC]G[dT]G[dD][dD][PEG6′][dK]-NH2 (disulfide 3-14; also: trimer, linkage not given here) [Ac-RSVP24-GDD(PEG6)K-trimer] | 4.6 µM | – | – |
| Ac-[dK][PEG6′]G[dH][dA][dC][dV][dN][dR][dP][dE][dW][dL][dL][dD][dW][dC]G[dR]G[dR][dR]-NH2 (disulfide 6-17; also: trimer, linkage not given here) [Ac-K(PEG6)G-RSVP26-GRR-trimer] | 5.5 µM | – | – |
| Ac-G[dE][dC][dV][dN][dR][dP][dE][dW][dL][dL][dD][dW][dC]G[dT]G[dD][dD][PEG4′][dK]-NH2 (disulfide 3-14; also: cholesterol conjugate, trimer) [Chol-Ac-RSVP32-GDD(PEG4)K-trimer] | 0.037 µM and 0.052 µM and 0.095 µM | – | – |
| Ac-[dK][PEG6′]G[dH][dA][dC][dV][dN][dR][dP][dE][dW][dL][dL][dD][dW][dC]G[dR]G[dR][dR]-NH2 (disulfide 6-17; also: cholesterol conjugate, trimer) [Chol-Ac-K(PEG6)G-RSVP26-GRR-trimer] | 0.49 µM | – | – |
| GEVCRPEWLLDWCGT (D-peptide; N-terminal acetyl; C-terminal amide) [RSVP32 with shortened disulfide] | – | 0.36 µM | 14.4 fold |
| Ac-[dK][PEG6′][dD][dD]G[dH][dA][dC][dV][dN][dR][dP][dE][dW][dL][dL][dD][dW][dC][dD][dH]-NH2 (disulfide 8-19; also: cholesterol conjugate, trimer) [Chol-Ac-K(PEG6)DDG-RSVP28-trimer] | 0.24 µM | – | – |
| GECVNQPEWLLDWCGT (D-peptide; N-terminal acetyl; C-terminal amide) [RSVP32 with Gln at position 6] | – | 0.053 µM | 2 fold |
| Ac-[dK][PEG6′][dD][dD]G[dH][dA][dC][dV][dN][dR][dP][dE][dW][dL][dL][dD][dW][dC]G[dR]-NH2 (disulfide 8-19; also: cholesterol (Chol) conjugate, site not given here, trimer) [Chol-Ac-K(PEG6)DDG-RSVP26-trimer] | 3.2 µM | – | – |

Biological target: T1, BPEG2-GKG-RSVB-IZN45 Full Mut
Assay: phage ELISA of clonal phage, percent bound

| Binder | binding result |
| --- | --- |
| GACKIHDLFHWHDCAA (disulfide (positions not given here); not fully specified (bridges), also called CXC10C-119) [CX10C-119 phage clone] | no binding |
| SLKYWWMEELPLPKWW [X16-18 phage clone] | no binding |
| SKVILPEPFWWP [X12-47 phage clone] | no binding |

Biological target: T3, IZN45_WT_Bot
Assay: phage ELISA of clonal phage, percent bound

| Binder | binding result |
| --- | --- |
| SLKYWWMEELPLPKWW [X16-18 phage clone] | no binding |
